Measurements reported in paper PMC2836939.
Like-named read-outs stand apart in the source and are kept apart here.

Key:
Test in all cases: EMSA
Dmp1 (Dmtf1) [1] = target: T1, Dmp1 (Dmtf1) (UniProt Q8CE22 1-761)
T1 sequence: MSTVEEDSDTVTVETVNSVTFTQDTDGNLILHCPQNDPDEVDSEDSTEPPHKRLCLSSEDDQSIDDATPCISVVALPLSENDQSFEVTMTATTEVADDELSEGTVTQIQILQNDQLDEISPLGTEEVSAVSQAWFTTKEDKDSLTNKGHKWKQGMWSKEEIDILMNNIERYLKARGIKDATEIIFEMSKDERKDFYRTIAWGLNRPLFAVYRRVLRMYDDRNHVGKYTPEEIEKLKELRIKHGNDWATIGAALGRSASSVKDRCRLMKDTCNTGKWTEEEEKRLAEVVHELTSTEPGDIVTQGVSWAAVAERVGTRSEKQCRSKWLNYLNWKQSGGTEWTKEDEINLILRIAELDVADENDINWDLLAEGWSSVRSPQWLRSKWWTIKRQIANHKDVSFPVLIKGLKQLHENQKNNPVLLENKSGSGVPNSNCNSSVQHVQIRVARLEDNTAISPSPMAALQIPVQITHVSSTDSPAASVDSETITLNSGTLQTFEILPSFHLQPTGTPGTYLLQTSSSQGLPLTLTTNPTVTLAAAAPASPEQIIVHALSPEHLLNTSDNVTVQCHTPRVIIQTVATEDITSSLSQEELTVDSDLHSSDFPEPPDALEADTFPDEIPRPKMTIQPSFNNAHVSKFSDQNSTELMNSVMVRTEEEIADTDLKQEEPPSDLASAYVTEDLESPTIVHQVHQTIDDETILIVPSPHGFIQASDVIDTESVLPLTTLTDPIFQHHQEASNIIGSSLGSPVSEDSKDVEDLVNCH

Dmp1 (Dmtf1) [2] = target: T1, Dmp1 (Dmtf1); remark: listed apart in the source
Dmp1 (Dmtf1) [3] = target: T1, Dmp1 (Dmtf1); remark: listed apart in the source
Dmp1 (Dmtf1) [4] = target: T1, Dmp1 (Dmtf1); remark: listed apart in the source
Dmp1 (Dmtf1) [5] = target: T1, Dmp1 (Dmtf1); remark: listed apart in the source

B1: JunB#2 (control) (dsDNA)
DNA 1: TTTGAGCCCTGGGAGCCATCCGAGCGGCTTTCAACAGACC
DNA 2: GGTCTGTTGAAAGCCGCTCGGATGGCTCCCAGGGCTCAAA
**Q.** Does B1 bind (Dmp1 (Dmtf1) [1])?
**A.** Result: no binding

B2: Areg#1 (dsDNA)
DNA 1: TTTACCCCAGAACGGGATGGGGAGCAT
DNA 2: ATGCTCCCCATCCCGTTCTGGGGTAAA
**Q.** Does B2 bind (Dmp1 (Dmtf1) [2])?
**A.** Result: binds

B3: Areg#2 (dsDNA)
DNA 1: TTTGCTCAGGTGAGCATCCGCCACCTCTCAGG
DNA 2: CCTGAGAGGTGGCGGATGCTCACCTGAGCAAA
**Q.** Does B3 bind (Dmp1 (Dmtf1) [3])?
**A.** Result: binds

B4: Egr1#1 (dsDNA)
DNA 1: TTTAAAACGAAGGTGGAGGCGGATGGAGAGAGAGAGAGAGAG
DNA 2: CTCTCTCTCTCTCTCTCCATCCGCCTCCACCTTCGTTTTAAA
**Q.** Does B4 bind (Dmp1 (Dmtf1) [4])?
**A.** Result: binds

B5: JunB#1 (dsDNA)
DNA 1: TTTTTTTCTTCCAAGCTGGGCGGATGGAGGGAGAAGATTG
DNA 2: CAATCTTCTCCCTCCATCCGCCCAGCTTGGAAGAAAAAAA
**Q.** Does B5 bind (Dmp1 (Dmtf1) [1])?
**A.** Result: binds

B6: Tsp-1#1 (dsDNA)
DNA 1: TTTCAGAGCCTGCGTATGTTATAACG
DNA 2: CGTTATAACATACGCAGGCTCTGAAA
**Q.** Does B6 bind (Dmp1 (Dmtf1) [5])?
**A.** Result: binds
